Experimental findings from article PMC12810643 are described below.

For the assay, the target named is endogenously expressed Gαi (human (endogenous in HEK293)) (UniProt P63096). Description: linear dichroism.
Sequence of UniProt P63096 (P63096 whole entry): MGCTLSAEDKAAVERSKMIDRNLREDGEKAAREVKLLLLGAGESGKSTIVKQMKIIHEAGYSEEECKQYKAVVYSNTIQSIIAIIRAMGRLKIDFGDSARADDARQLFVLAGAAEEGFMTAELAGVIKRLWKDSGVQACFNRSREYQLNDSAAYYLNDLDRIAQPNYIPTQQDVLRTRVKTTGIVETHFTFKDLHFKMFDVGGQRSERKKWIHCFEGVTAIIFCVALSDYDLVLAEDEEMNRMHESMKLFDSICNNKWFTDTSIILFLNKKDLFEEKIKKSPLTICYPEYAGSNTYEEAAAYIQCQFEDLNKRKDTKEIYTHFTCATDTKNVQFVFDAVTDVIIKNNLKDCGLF

In turn, KB1753-eGFP-HRas came in with a percent of the FLIP molecules bound of 15%. With KB1753-cpmTurq2-HRas the figure was 15%.
